According to patent US20220185889:

Molecular target: CTLA-4 Ig functionalized with GzmB substrate (UniProt P16410)
Sequence (P16410 38-161): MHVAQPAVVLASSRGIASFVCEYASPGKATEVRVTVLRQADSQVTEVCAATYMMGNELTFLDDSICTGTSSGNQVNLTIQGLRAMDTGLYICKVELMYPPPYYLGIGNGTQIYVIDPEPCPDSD

Chain of mannose-associated serine protease 1 (P48740 20-699): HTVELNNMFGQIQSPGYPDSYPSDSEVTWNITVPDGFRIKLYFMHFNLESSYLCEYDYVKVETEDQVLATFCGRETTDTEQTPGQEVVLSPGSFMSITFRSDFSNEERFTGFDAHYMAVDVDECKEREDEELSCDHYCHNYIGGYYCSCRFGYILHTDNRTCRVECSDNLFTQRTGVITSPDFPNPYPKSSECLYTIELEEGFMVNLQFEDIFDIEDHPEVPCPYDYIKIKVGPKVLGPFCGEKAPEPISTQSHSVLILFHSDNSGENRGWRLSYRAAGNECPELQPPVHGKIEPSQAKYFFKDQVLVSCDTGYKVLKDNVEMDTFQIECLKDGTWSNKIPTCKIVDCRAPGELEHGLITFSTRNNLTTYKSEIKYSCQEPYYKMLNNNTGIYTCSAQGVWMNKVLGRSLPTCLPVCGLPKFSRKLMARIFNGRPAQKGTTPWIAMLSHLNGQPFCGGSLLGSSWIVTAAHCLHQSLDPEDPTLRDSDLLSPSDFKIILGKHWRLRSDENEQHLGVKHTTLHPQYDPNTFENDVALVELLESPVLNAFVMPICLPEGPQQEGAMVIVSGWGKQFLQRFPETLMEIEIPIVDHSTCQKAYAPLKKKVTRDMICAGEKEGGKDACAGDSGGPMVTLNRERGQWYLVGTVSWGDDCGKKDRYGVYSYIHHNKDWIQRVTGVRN
Chain of matrix metalloproteinase 2 (P08253 110-660): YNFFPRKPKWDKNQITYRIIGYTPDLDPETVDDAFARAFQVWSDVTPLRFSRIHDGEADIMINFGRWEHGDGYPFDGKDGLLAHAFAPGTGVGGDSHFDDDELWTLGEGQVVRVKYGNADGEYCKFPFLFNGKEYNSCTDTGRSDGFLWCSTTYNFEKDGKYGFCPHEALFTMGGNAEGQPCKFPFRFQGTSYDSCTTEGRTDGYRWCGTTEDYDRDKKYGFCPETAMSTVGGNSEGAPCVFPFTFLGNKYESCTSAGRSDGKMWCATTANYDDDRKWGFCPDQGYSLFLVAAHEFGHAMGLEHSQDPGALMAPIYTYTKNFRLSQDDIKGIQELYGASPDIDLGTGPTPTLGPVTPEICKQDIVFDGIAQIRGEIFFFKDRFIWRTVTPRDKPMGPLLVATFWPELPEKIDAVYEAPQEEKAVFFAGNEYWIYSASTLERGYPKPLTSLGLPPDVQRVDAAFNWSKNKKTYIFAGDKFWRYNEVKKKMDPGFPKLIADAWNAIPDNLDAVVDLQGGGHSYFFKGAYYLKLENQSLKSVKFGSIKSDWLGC

Row | Substance | in vitro cleavage assay
1 | matrix metalloproteinase 15 | no cross-cleavage by matrix, complement, or immune proteases
2 | matrix metalloproteinase 9 | no cross-cleavage by matrix, complement, or immune proteases
3 | mannose-associated serine protease 1 | no cross-cleavage by matrix, complement, or immune proteases
4 | Cathepsin B | no cross-cleavage by matrix, complement, or immune proteases
5 | granzyme B | modified CTLA-4 Ig demonstrated specific cleavage by GzmB
6 | matrix metalloproteinase 2 | no cross-cleavage by matrix, complement, or immune proteases
